Source: US20260103629A1 (YALE UNIVERSITY, published 2026)

Biological target: T1, asialofetuin (Sigma-Aldrich A4781), coated on glass (UniProt P12763 19-359, an extensively glycosylated protein (so in the source))
T1 construct: also called asialofetuin-coated surface
T1 sequence: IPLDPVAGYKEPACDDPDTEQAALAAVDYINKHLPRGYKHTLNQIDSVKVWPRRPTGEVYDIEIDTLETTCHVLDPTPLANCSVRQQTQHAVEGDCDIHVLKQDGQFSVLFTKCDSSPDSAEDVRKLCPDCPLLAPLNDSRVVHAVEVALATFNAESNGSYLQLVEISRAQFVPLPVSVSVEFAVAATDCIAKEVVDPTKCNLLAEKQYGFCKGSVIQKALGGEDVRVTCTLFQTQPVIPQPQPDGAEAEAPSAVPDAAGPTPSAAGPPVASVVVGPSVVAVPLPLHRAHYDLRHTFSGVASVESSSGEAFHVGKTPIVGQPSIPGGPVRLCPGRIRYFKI
Assay: in situ anti-FLAG immunostaining of biofilms grown on asialofetuin-coated glass

B1: Bap1 (Biofilm-Associated Protein 1 of V. cholerae, wild type), tagged with 3xFLAG at the C-terminus (other)
chain: SSSSDIQTKLKWSWSTSVFHPESNQVMAAPIVVQLNDDNGDGKIDEKDVADIIVVTFEGNKYANGGYIRALSGVDGSELWSYSNGGVIADARYAPAAADLDGDGLIEIVSTSALTPYINILDHQGNIKKQLLKSASGWRSVGDIALADINGDGNIEILAADGVYSYESGLLFSHDWAPSSIAFDSNGDGQREVFANGTLYQNNGAYLWQYQANDTVWFSSVANLDGDDKPELVVSVPASLSTPENSEIAVLEHDGSVKWRVNNLSNPGGSVQAVSSFLGKPSSSATTVDAQSAVYGYTDWAHQQRVLAENHQLAIRSGAVVDAIGANSQNMIGGSGGSLSTIDTSKVRAIDVTYGKNKYTWKYGVLEMSFTLDNGAKVTVGSKDSAFTYLGLEWKTKTVPYLGVEWRTKTVSYWFFGWHTKQVAYLAPVWKEKTIPYAVPVTLSKSTTVRYDIPQGSQLLGMNVWSKEKHLFKHKQQVNAVQFLVGKVTADQSHMGIVYAGYYAVDMYDAQGNKVWSVANDDLNSGKIGVSAYDFTGDGIDEVLVQDRLRMRILDGQTGRVMGIIANSSGTLWEYPVVADLEGNNNASLIMVANDYDRESQVNHGVFVYESANPSKPWRNATRIWNQYAFNFSDINANGTIPTNAQPSWLTHNSFRSATIRVPLK
notes: also called VC1888; WT Bap1; not shown: C-terminal 3xFLAG tag
  binding result: no binding
